How the values were obtained:
[1] = target: T1, human HER2 expressed on cells (cancer cell lines and normal primary cultures) (human, UniProt P04626 23-1255); assay: imaging, Alexa647-labelled antibody 10 ug/mL at 4 C on NBE cells; signal per nuclei, normalised to the highest cell line
T1 construct: Endogenous HER2 of the cell lines; the same cells also express APLP2; also called human epidermal growth factor receptor 2
Description: (§1) After, cells were washed twice with cold DMEM+10% FBS. […] After, the solution was replaced with DPBS/CM. Binding of the bispecific antibodies to each of the cell types was measured using an Image Xpress^Micro automatic microscope (Molecular Devices). […] (See also FIG. 2.)
(§2) The signal of antibody binding (mean intensity fluorescence of Alexa647) divided by the nuclei signals was determined for each condition using MetaXpress software (Molecular Devices). Values were normalized to the cell line displaying the highest antibody binding signal.

[2] = target: T2, human HER2 extracellular domain expressed with a C-terminal myc-myc-hexahistidine tag (human, UniProt P04626 23-652); assay: SPR (Biacore 4000), antibody captured on anti-human Fc, hHER2-MMH injected, 37 C
T2 construct: also called hHER2-MMH; HER2.mmh
Description: (§3) Equilibrium dissociation constants (KD values) for HER2 and APLP2 binding to purified anti-HER2xAPLP2 bispecific and parental antibodies were determined using a real-time surface plasmon resonance biosensor using a Biacore 4000 instrument. The Biacore sensor surface was first derivatized by amine coupling with a monoclonal mouse anti-human Fc antibody (GE, Cat #BR-1008-39) to capture anti-HER2xAPLP2 bispecific monoclonal antibodies. […] Kinetic association rate constant (ka) and dissociation rate constant (kd) were determined by fitting the real-time sensorgrams to a 1:1 binding model using Scrubber 2.0c curve fitting software. Binding dissociation equilibrium constants (KD) and dissociative half-lives (t1/2) were calculated from the kinetic rate constants as: […]

[3] = target: T1, human HER2 expressed on cells (cancer …); assay: imaging, Alexa647-labelled antibody on MDA-MB-361 cells at 4 C; No Block
Description: (§4) For the assay, cells were plated on collagen-coated, black wall, 96-well, optical plates (Greiner, Cat #655936) at 2.5×10⁵ cells per well in their appropriate culture media (described in previous examples), and incubated overnight at 37° C. in 5% CO₂. The next day, the cells were placed in refrigeration at 4° C. for 30 minutes. […] To each antibody solution, either PBS alone, human HER2 extracellular domain expressed with a C-terminal myc-myc-hexahistidine tag (hHER2-MMH; SEQ ID NO: 53) alone, human APLP2 extracellular domain expressed with a C-terminal myc-myc-hexahistidine tag (hAPLP2-MMH; SEQ ID NO: 54) alone, or the combination of hHER2-MMH and hAPLP2-MMH was added at a concentration of […]. After incubation, and removal of culture media, 50 μL/well of the bispecific antibody and soluble protein solutions were added to the cells for 30 minutes at 4° C. The cells were subsequently washed with 150 μL/well of DMEM containing 10% FBS at 4° C. for 10 minutes. […] The fixing buffer was then removed, 100 uL of DPBS/CM was added and allowed to incubate for approximately 20 minutes at room temperature prior to image acquisition. Binding of the bispecific antibodies to each of the cell types was measured using an Image Xpress^Micro automatic microscope (Molecular Devices). Data acquired was analyzed using MetaXpress software (Molecular Devices). […]

[4] = target: T3, human APLP2 extracellular domain expressed with a C-terminal myc-myc-hexahistidine tag (human, UniProt Q06481 32-692); assay: SPR (Biacore 4000), antibody captured on anti-human Fc, hAPLP2-MMH injected, 37 C
T3 construct: also called hAPLP2-MMH; APLP2.mmh
T3 sequence (Q06481 other isoform, or with tags, fused parts or gaps): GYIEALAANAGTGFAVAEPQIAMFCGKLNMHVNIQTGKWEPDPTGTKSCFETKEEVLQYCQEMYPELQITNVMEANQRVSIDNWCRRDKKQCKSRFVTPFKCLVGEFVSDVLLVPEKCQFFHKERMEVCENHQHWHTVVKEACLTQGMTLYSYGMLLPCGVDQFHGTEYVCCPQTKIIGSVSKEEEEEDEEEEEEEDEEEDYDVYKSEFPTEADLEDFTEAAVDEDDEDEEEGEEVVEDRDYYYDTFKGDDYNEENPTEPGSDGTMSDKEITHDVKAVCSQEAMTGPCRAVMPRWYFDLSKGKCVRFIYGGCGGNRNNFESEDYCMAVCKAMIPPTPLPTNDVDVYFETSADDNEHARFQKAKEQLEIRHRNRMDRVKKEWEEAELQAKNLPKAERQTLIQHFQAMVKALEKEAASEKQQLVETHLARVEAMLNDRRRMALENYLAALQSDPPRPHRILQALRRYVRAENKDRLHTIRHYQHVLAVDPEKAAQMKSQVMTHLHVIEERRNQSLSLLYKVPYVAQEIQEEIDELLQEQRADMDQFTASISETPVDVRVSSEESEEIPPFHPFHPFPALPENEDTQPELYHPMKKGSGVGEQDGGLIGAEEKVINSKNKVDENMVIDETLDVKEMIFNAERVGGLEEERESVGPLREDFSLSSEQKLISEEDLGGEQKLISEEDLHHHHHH
Description: as §3

[5] = target: T1, human HER2 expressed on cells (cancer …); assay: imaging, Alexa647-labelled antibody on MDA-MB-361 cells at 4 C; competitors hHER2-MMH + hAPLP2-MMH
Description: as §4

[6] = target: T1, human HER2 expressed on cells (cancer …); assay: imaging, Alexa647-labelled antibody 10 ug/mL at 4 C on MCF7 cells; signal per nuclei, normalised to the highest cell line
Description: as §1, §2

[7] = target: T1, human HER2 expressed on cells (cancer …); assay: imaging, Alexa647-labelled antibody 10 ug/mL at 4 C on MDA-MB-453 cells; signal per nuclei, normalised to the highest cell line
Description: as §1, §2

[8] = target: T1, human HER2 expressed on cells (cancer …); assay: imaging, Alexa647-labelled antibody 10 ug/mL at 4 C on JIMT-1 cells; signal per nuclei, normalised to the highest cell line
Description: as §1, §2

[9] = target: T1, human HER2 expressed on cells (cancer …); assay: imaging, Alexa647-labelled antibody 10 ug/mL at 4 C on MDA-MB-361 cells; signal per nuclei, normalised to the highest cell line
Description: as §1, §2

[10] = target: T1, human HER2 expressed on cells (cancer …); assay: imaging, Alexa647-labelled antibody on MDA-MB-361 cells at 4 C; competitor hHER2-MMH
Description: as §4

[11] = target: T1, human HER2 expressed on cells (cancer …); assay: imaging, Alexa647-labelled antibody 10 ug/mL at 4 C on SKBR3 cells; signal per nuclei, normalised to the highest cell line
Description: (§5) To test the ability of bispecific anti-HER2xAPLP2 molecules described herein to bind to cells lines expressing various levels of HER2, a high content imaging assay was performed. […] Cells were plated on collagen-coated, black wall, 96-well, optical plates (Greiner, Cat #655936) at 2.5×10⁵ cells per well in their appropriate culture media, which is described for each cell line/culture in Table 6, and incubated overnight at 37° C. in 5% CO₂.
as §1, §2

[12] = target: T3, human APLP2 extracellular domain …; assay: SPR, antibody captured, hAPLP2-MMH injected, 25 C
[13] = target: T1, human HER2 expressed on cells (cancer …); assay: imaging, Alexa647-labelled antibody 10 ug/mL at 4 C on T47D cells; signal per nuclei, normalised to the highest cell line
Description: as §1, §2

[14] = target: T1, human HER2 expressed on cells (cancer …); assay: imaging, Alexa647-labelled antibody 10 ug/mL at 4 C on NLE cells; signal per nuclei, normalised to the highest cell line
Description: as §1, §2

[15] = target: T1, human HER2 expressed on cells (cancer …); assay: imaging, Alexa647-labelled antibody 10 ug/mL at 4 C on MDA-MB-468 cells; signal per nuclei, normalised to the highest cell line
Description: as §1, §2

[16] = target: T1, human HER2 expressed on cells (cancer …); assay: imaging, Alexa647-labelled antibody 10 ug/mL at 4 C on BT483 cells; signal per nuclei, normalised to the highest cell line
Description: as §5, §1, §2

[17] = target: T1, human HER2 expressed on cells (cancer …); assay: imaging, Alexa647-labelled antibody on MDA-MB-361 cells at 4 C; competitor hAPLP2-MMH
Description: as §4

B1: H4H25017D (bispecific antibody, IgG4, V domains shown)
VH 1: QVQLVQSGPEVKKPGASVKVSCKASGYTFPNFGISWVRQAPGQGLEWMGWIAPYNVATNYAPKLQGRVTMTTDTSTSTAYMELRSLRSDDTAVYYCARWGAGYMGYYYYGMDVWGQGTTVTVSS
VH 2: EVQLVESGGGLVQPGGSLRLSCAASGFTFSTYVMSWVRQAPGKGPEWVSGISGRTGTTYYADSVKGRFTISRDNSKNTLYLQMNSLRAEDTAVYYCASRITAAGRGYYYYYGMDVWGRGTTVTVSS
VL: not shown
notes: Wild-type kappa CL and a modified (chimeric) IgG4 CH domain as set forth in US20140243504A1; also called bispecific anti-HER2xAPLP2 antibody
Antibody bound (% of highest) [1]: 10% | Kd [2]: 4.85 nM | koff [2]: 0.0009 s⁻¹ | kon [2]: 186000 M⁻¹ s⁻¹ | t½ [2]: 13 min | Bispecific antibody signal (Fold over blank) [3]: 14 fold over blank | 100 nM hAPLP2-MMH Bound (RU) [4]: 13 RU | Kd [4]: 281 nM | koff [4]: 0.00977 s⁻¹ | kon [4]: 34700 M⁻¹ s⁻¹ | t½ [4]: 1.2 min | Bispecific antibody signal (Fold over blank) [5]: 5 fold over blank | Antibody bound (% of highest) [6]: 9% | Antibody bound (% of highest) [7]: 31% | Antibody bound (% of highest) [8]: 17% | Antibody bound (% of highest) [9]: 35% | Bispecific antibody signal (Fold over blank) [10]: 3 fold over blank | Antibody bound (% of highest) [11]: 100% | 90 nM hAPLP2-MMH Bound (RU) [12]: 13.4 RU | Kd [12]: 8.5 nM | koff [12]: 0.000782 s⁻¹ | kon [12]: 92000 M⁻¹ s⁻¹ | t½ [12]: 14.8 min | Antibody bound (% of highest) [13]: 7% | Antibody bound (% of highest) [14]: 4% | Antibody bound (% of highest) [15]: 1% | Antibody bound (% of highest) [16]: 22% | Bispecific antibody signal (Fold over blank) [17]: 13 fold over blank

— patent publication US20210246224A1 (Regeneron, published 2021)
